Measurements as given in patent US20020143152A1, “Polypeptides, their production and use” (priority 1997, published 2002).
Entries after “also recorded” stand apart in the source; their conditions may differ. Non-standard residues stand in square brackets, D forms with d. No end group written: not given here. Met(O) = CS(=O)CC[C@H](N)C(=O)O

Molecular target: T1, full-length human pituitary G protein-coupled receptor protein (phGR3) expressed in CHO-19P2 cells (Homo sapiens, UniProt P49683)
T1 construct: a ligation reaction was carried out to construct a full-length receptor protein expression plasmid pAKKO-19P2; expressed in transfected cells
T1 sequence (P49683 1-370): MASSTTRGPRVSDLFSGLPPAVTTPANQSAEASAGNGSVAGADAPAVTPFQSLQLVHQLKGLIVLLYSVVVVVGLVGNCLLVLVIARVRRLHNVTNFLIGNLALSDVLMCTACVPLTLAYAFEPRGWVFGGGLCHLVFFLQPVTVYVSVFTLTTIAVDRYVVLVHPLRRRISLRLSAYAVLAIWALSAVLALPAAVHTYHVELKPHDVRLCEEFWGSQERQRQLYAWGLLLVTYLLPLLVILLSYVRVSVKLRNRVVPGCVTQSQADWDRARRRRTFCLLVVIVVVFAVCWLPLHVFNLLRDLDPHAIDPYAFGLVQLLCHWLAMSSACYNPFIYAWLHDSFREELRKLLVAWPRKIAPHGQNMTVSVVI
Test: release of [3H] arachidonic acid metabolites from CHO-19P2 cells
Type: cell-based
Details: synthetic peptide diluted with 0.05% BSA-HBSS to 10^−12M-10^−6M; radioactivity of [3H] arachidonic acid metabolites released in supernatant
Procedure: The full-length receptor protein-expressed CHO cells and mock CHO cells were seeded in a 24-well plate, 0.5×10^5 cells/well, and cultured for 24 hours. Then, [^3H] arachidonic acid was added at a final concentration of 0.25μCi/well. Sixteen (16) hours after addition of [^3H] arachidonic acid, the cells were rinsed with 0.05% BSA-HBSS and the above-mentioned crude peptide fraction was added, 400 μl/well. The mixture was incubated at 37 C. for 30 minutes and a 300 μl portion of the reaction mixture (400 μl) was added to a scintillator (4 ml) and the amount of [^3H] arachidonic acid metabolite released into the reaction mixture was determined with a scintillation counter. As a result, an arachidonic acid metabolite-releasing activity specific to the full-length receptor protein expressed CHO cells (CHO-19P2) was detected in the 30% CH3CN fraction of the eluate FIG. 16.
The activity of the peptide (19P2-L31) synthesized in Example 21 to specifically release arachidonic acid metabolites from CHO-19P2 cells was assayed in the same manner as Example 11. The synthetic peptide was dissolved in degassed distilled water at a concentration of 10^−3M and diluted with 0.05% BSA-HBSS and the activity to promote release of arachidonic acid metabolites from CHO-19P2 cells at each concentration was assayed using the amount of [^3H] arachidonic acid metabolites as the indicator.
The activity of the synthetic equivalent (19P2- L20) of natural peptide P-2 as synthesized in Example 23 to specifically promote release of arachidonic acid metabolites from CHO-19P2 cells was determined as in Example 11. Thus, the synthetic peptide was dissolved in degassed distilled water at a final concentration of 10^−3M and this solution was serially diluted with 0.05% BAS-HBSS. The activity to specifically promote release of arachidonic acid metabolites from CHO-19P2 cells at each concentration was assayed using the amount of [^3H] arachidonic acid metabolites as the indicator.

Substance	activity to specifically promote release of arachidonic acid metabolites from CHO-19P2 cells
Ser-Arg-Ala-His-Gln-His-Ser-Met(O)-Glu-Ile-Arg-Thr-Pro-Asp-Ile-Asn-Pro-Ala-Trp-Tyr-Ala-Gly-Arg-Gly-Ile-Arg-Pro-Val-Gly-Arg-Phe-NH2 (SRAHQHS[Met(O)]EIRTPDINPAWYAGRGIRPVGRF-NH2; N-terminus assumed; SMILES CC[C@H](C)[C@H](NC(=O)CNC(=O)[C@H](CCCNC(=N)N)NC(=O)CNC(=O)[C@H](C)NC(=O)[C@H](Cc1ccc(O)cc1)NC(=O)[C@H](Cc1c[nH]c2ccccc12)NC(=O)[C@H](C)NC(=O)[C@@H]1CCCN1C(=O)[C@H](CC(N)=O)NC(=O)[C@@H](NC(=O)[C@H](CC(=O)O)NC(=O)[C@@H]1CCCN1C(=O)[C@@H](NC(=O)[C@H](CCCNC(=N)N)NC(=O)[C@@H](NC(=O)[C@H](CCC(=O)O)NC(=O)[C@H](CCS(C)=O)NC(=O)[C@H](CO)NC(=O)[C@H](Cc1c[nH]cn1)NC(=O)[C@H](CCC(N)=O)NC(=O)[C@H](Cc1c[nH]cn1)NC(=O)[C@H](C)NC(=O)[C@H](CCCNC(=N)N)NC(=O)[C@@H](N)CO)[C@@H](C)CC)[C@@H](C)O)[C@@H](C)CC)C(=O)N[C@@H](CCCNC(=N)N)C(=O)N1CCC[C@H]1C(=O)N[C@H](C(=O)NCC(=O)N[C@@H](CCCNC(=N)N)C(=O)N[C@@H](Cc1ccccc1)C(N)=O)C(C)C) [19P2-L31(O), methionine-oxidation product of 19P2-L31]	equivalent to the activity of 19P2-L31; also recorded: found in a dose-dependent manner
Ser-Arg-Ala-His-Gln-His-Ser-Met-Glu-Ile-Arg-Thr-Pro-Asp-Ile-Asn-Pro-Ala-Trp-Tyr-Ala-Gly-Arg-Gly-Ile-Arg-Pro-Val-Gly-Arg-Phe-NH2 (SRAHQHSMEIRTPDINPAWYAGRGIRPVGRF-NH2) [19P2-L31]	concentration-dependent arachidonic acid metabolite-releasing activity was detected over the range of 10^−12M -10^−6M; also recorded: found in a concentration-dependent manner
Thr-Pro-Asp-Ile-Asn-Pro-Ala-Trp-Tyr-Ala-Gly-Arg-Gly-Ile-Arg-Pro-Val-Gly-Arg-Phe-NH2 (TPDINPAWYAGRGIRPVGRF-NH2) [19P2-L20]	concentration-dependent arachidonic acid metabolite-releasing activity was detected over the range of 10^−12 -10^−6M in nearly the same degree as 19P2-L31; also recorded: found in a dose-dependent manner
